Assay results as given in patent US20150225472A1.

Target: Light chain of BDD-Factor VIII (FVIII: C light chain) expressed in Pichia pastoris GS115 (Homo sapiens (Human)) (UniProt P00451)
Experiment: cell-based or functional assay

Light chain of BDD-Factor VIII (FVIII: C light chain) expressed in Pichia pastoris GS115 (Homo sapiens (Human)), sequence (P00451 other isoform, or with tags, fused parts or gaps limits assumed): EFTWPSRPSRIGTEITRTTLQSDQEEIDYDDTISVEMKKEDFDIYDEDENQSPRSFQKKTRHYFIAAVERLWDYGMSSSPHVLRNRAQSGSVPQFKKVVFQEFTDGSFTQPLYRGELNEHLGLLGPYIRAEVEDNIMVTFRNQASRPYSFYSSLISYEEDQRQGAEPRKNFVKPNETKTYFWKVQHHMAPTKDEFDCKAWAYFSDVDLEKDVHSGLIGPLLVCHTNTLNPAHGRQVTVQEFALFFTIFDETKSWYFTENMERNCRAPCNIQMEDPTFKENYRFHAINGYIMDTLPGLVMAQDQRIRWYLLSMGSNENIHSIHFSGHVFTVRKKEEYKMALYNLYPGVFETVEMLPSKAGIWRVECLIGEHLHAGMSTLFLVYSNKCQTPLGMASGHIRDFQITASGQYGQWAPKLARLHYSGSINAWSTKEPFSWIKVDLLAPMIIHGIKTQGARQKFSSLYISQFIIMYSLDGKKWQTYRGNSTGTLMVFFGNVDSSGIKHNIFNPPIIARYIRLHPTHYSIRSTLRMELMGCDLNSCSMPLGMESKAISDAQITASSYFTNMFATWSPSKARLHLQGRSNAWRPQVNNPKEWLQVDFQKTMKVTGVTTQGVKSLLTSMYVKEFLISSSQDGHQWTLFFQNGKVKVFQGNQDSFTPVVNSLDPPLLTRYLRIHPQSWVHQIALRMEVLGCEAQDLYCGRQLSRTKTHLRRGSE

Specific Activity[IU/mg], chromogenic assay: 7660 IU/mg
Specific Activity[IU/mg], one stage clotting assay: 132 IU/mg
Substance: Heavy chain of BDD-Factor VIII (FVIII: C heavy chain, A1 and A2 domains) expressed in Pichia pastoris GS115 (from UniProt P00451 20-759)
